These results are taken from article PMC10980755, “Cooperative nucleic acid binding by Poly ADP-ribose polymerase 1”.

For series [1], the target named is T1, WT-PARP1 (full-length) (UniProt P09874 1-1014). Nature of the series: EMSA; monomer-equivalent Kmono; n=1.8±0.1; ω=24.7±8.6; EMSA: 25 mM Tris pH 8.0, 150 mM NaCl, 50 mM arginine, 1 mM EDTA, 0.1 mM TCEP, 1 mg/mL BSA, 20 °C, 30 min; 0.06 µM nucleic acid. The settings on record: protein: recombinant; tags: His; label: 5'-32P. (Mobility shift assays separate free from complexed probe on a gel.)

For series [2], the target named is T2, ∆CAT-PARP1 (UniProt P09874 1-662, del663-1014). Kind of series: EMSA; Kmono; n=1.0±0.1; EMSA: 25 mM Tris pH 8.0, 150 mM NaCl, 50 mM arginine, 1 mM EDTA, 0.1 mM TCEP, 1 mg/mL BSA, 20 °C, 30 min; 0.06 µM nucleic acid. The settings on record: protein: recombinant; tags: His; label: 5'-32P.
For series [3], the target named is T3, ∆Zn1∆Zn2-PARP1 (UniProt P09874 216-1014, del1-215). Nature of the series: EMSA; monomer-equivalent Kmono; n=1.7±0.1; ω=56.7±14.4; EMSA: 25 mM Tris pH 8.0, 150 mM NaCl, 50 mM arginine, 1 mM EDTA, 0.1 mM TCEP, 1 mg/mL BSA, 20 °C, 30 min; 0.06 µM nucleic acid. The settings on record: protein: recombinant; tags: His; label: 5'-Cy3.
Series [4] has as its target T1, WT-PARP1 (full-length). Nature of the series: EMSA; monomer-equivalent Kmono; n=2.2±0.1; ω=51.4±10.1; EMSA: 25 mM Tris pH 8.0, 150 mM NaCl, 50 mM arginine, 1 mM EDTA, 0.1 mM TCEP, 1 mg/mL BSA, 20 °C, 30 min; 0.06 µM nucleic acid. The conditions noted are these: protein: recombinant; tags: His; label: 5'-Cy3.
In series [5] the target is T2, ∆CAT-PARP1. Kind of series: EMSA; monomer-equivalent Kmono; n=1.9±0.1; ω=49.0±12.9; EMSA: 25 mM Tris pH 8.0, 150 mM NaCl, 50 mM arginine, 1 mM EDTA, 0.1 mM TCEP, 1 mg/mL BSA, 20 °C, 30 min; 0.06 µM nucleic acid. The settings on record: protein: recombinant; tags: His; label: 5'-Cy3.
The target of series [6] is T3, ∆Zn1∆Zn2-PARP1. Kind of series: sedimentation velocity AUC; 10 mM Tris pH 8.0, 100 mM NaCl, 4 °C; 1.8 µM DNA, 7.2 µM protein; reaction boundary, rapid equilibrium; EMSA: 25 mM Tris pH 8.0, 150 mM NaCl, 50 mM arginine, 1 mM EDTA, 0.1 mM TCEP, 1 mg/mL BSA, 20 °C, 30 min; 0.06 µM nucleic acid. The settings on record: protein: recombinant; tags: His; label: 5'-32P on one strand (EMSA); unlabeled in AUC; blunt.

Series [7] deals with T2, ∆CAT-PARP1. Kind of series: EMSA; monomer-equivalent Kmono; n=3.9±0.2; ω=139.9±59.5; EMSA: 25 mM Tris pH 8.0, 150 mM NaCl, 50 mM arginine, 1 mM EDTA, 0.1 mM TCEP, 1 mg/mL BSA, 20 °C, 30 min; 0.06 µM nucleic acid. The conditions noted are these: protein: recombinant; tags: His; label: 5'-32P on one strand (EMSA); unlabeled in AUC; blunt.
The target of series [8] is T1, WT-PARP1 (full-length). Nature of the series: EMSA; monomer-equivalent Kmono; n=4.1±0.2; ω=82.6±20.5; EMSA: 25 mM Tris pH 8.0, 150 mM NaCl, 50 mM arginine, 1 mM EDTA, 0.1 mM TCEP, 1 mg/mL BSA, 20 °C, 30 min; 0.06 µM nucleic acid. The conditions noted are these: protein: recombinant; tags: His; label: 5'-32P on one strand (EMSA); unlabeled in AUC; blunt.
Series [9] has as its target T1, WT-PARP1 (full-length). Nature of the series: EMSA; monomer-equivalent Kmono; n=1.9±0.2; ω=67.3±10.8; EMSA: 25 mM Tris pH 8.0, 150 mM NaCl, 50 mM arginine, 1 mM EDTA, 0.1 mM TCEP, 1 mg/mL BSA, 20 °C, 30 min; 0.06 µM nucleic acid. The settings on record: protein: recombinant; tags: His; label: 5'-32P.
Series [10] concerns the target T2, ∆CAT-PARP1. Nature of the series: EMSA; monomer-equivalent Kmono; n=1.8±0.1; ω=86.1±20.3; EMSA: 25 mM Tris pH 8.0, 150 mM NaCl, 50 mM arginine, 1 mM EDTA, 0.1 mM TCEP, 1 mg/mL BSA, 20 °C, 30 min; 0.06 µM nucleic acid. The settings on record: protein: recombinant; tags: His; label: 5'-32P.
In series [11] the target is T3, ∆Zn1∆Zn2-PARP1. Kind of series: EMSA; monomer-equivalent Kmono; n=2.9±0.2; ω=104.3±31.1; EMSA: 25 mM Tris pH 8.0, 150 mM NaCl, 50 mM arginine, 1 mM EDTA, 0.1 mM TCEP, 1 mg/mL BSA, 20 °C, 30 min; 0.06 µM nucleic acid. The conditions noted are these: protein: recombinant; tags: His; label: 5'-32P.

T2 sequence (P09874 1-662, stated change not applied): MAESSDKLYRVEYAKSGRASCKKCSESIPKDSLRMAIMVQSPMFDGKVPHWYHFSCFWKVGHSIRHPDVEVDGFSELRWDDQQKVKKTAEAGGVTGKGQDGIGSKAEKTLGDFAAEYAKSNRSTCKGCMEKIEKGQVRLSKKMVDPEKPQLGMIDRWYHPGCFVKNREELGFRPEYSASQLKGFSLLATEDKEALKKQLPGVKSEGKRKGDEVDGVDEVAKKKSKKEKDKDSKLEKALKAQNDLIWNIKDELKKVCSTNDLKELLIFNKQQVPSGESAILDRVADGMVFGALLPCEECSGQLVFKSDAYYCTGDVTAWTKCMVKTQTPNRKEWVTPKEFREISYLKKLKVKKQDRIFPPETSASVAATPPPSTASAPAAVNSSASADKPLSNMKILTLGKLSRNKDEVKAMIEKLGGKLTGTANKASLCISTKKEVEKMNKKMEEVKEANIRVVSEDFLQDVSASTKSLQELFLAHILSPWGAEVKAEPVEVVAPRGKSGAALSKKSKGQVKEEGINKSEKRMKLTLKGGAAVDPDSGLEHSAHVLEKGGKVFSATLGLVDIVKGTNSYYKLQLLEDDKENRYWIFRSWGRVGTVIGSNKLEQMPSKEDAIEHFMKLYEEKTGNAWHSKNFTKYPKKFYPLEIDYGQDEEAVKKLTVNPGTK
T3 sequence (P09874 216-1014, stated change not applied): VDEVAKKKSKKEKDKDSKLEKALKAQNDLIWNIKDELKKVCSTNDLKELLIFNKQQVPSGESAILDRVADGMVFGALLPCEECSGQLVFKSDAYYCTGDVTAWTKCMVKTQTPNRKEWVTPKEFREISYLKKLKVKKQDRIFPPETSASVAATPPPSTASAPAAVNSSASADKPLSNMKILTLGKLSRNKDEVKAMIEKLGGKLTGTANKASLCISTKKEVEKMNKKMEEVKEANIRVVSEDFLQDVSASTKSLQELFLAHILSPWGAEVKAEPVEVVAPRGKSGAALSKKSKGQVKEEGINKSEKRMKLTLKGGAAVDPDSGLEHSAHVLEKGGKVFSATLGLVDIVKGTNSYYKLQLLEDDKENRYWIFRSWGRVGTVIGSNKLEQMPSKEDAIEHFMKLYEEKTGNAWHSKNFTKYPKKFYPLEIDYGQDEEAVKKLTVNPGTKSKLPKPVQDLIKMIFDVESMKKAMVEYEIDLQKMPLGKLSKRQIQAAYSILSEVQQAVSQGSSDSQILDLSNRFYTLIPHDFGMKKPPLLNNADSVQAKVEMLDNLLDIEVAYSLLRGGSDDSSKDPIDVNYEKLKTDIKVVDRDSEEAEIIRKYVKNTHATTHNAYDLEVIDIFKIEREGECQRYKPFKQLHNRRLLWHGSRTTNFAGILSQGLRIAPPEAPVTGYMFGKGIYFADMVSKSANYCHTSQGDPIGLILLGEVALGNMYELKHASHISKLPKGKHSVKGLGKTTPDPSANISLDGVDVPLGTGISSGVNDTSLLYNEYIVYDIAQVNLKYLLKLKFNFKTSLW
T1 sequence (P09874 whole entry): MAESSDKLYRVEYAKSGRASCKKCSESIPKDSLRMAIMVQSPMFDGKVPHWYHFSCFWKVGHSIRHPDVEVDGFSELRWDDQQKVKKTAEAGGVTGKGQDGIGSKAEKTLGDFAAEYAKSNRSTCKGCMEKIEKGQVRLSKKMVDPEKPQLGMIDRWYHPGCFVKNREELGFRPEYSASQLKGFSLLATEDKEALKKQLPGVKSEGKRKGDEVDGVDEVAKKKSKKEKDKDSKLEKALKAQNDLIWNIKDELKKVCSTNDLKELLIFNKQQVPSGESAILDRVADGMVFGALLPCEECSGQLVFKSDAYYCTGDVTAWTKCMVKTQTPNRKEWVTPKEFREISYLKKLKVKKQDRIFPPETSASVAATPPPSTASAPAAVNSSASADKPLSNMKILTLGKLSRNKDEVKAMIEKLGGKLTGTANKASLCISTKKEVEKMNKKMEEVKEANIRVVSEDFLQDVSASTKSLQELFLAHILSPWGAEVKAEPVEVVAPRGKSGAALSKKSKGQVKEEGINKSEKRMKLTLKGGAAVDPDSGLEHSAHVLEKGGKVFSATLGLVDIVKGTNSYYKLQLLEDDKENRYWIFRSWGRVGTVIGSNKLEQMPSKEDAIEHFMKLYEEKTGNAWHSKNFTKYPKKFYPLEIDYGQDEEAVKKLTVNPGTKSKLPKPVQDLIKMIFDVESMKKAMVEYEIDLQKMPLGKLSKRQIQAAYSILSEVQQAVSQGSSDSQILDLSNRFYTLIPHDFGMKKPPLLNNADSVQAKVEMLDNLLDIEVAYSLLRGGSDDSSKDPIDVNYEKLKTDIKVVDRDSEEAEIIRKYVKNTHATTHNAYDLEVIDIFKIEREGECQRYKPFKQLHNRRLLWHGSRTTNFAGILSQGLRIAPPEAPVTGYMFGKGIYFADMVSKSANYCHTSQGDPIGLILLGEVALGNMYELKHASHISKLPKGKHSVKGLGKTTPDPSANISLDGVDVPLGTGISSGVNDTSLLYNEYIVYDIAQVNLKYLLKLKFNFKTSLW

B1: ss19-mer DNA (ssDNA)
DNA: CGTACGCGGGTTTAAACGA
In the case of B1, the figures for the Ka with WT-PARP1 (full-length) [1] and with ∆CAT-PARP1 [2] were 3.3e+06 M⁻¹ and 114000 M⁻¹, respectively.

B2: Cy3-T20 DNA (ssDNA)
DNA: TTTTTTTTTTTTTTTTTTTT
As for B2, the Ka in the series with ∆Zn1∆Zn2-PARP1 [3] amounted to 2.5e+06 M⁻¹; in the series with WT-PARP1 (full-length) [4] it was 1.3e+07 M⁻¹; in the series with ∆CAT-PARP1 [5], 3.3e+06 M⁻¹.

B3: ds19-mer DNA (dsDNA)
DNA 1: CGTACGCGGGTTTAAACGA
DNA 2: TCGTTTAAACCCGCGTACG
Take B3: the binding result in the series with ∆Zn1∆Zn2-PARP1 [6] is “binds”. Also, the Ka with ∆CAT-PARP1 [7] was 1.3e+07 M⁻¹; with WT-PARP1 (full-length) [8], 1.2e+07 M⁻¹.

B4: U20 RNA (ssRNA)
RNA: UUUUUUUUUUUUUUUUUUUU
In the case of B4, the Ka in the series with WT-PARP1 (full-length) [9] came to 2.1e+08 M⁻¹; with ∆CAT-PARP1 [10], 6.6e+06 M⁻¹; with ∆Zn1∆Zn2-PARP1 [11] it was 9.1e+07 M⁻¹.
